This test has as its target Glmn, purified, His6-MBP removed (human, UniProt Q92990 1-594). Briefly: SEC.

Chain of Glmn, purified, His6-MBP removed (Q92990 whole entry): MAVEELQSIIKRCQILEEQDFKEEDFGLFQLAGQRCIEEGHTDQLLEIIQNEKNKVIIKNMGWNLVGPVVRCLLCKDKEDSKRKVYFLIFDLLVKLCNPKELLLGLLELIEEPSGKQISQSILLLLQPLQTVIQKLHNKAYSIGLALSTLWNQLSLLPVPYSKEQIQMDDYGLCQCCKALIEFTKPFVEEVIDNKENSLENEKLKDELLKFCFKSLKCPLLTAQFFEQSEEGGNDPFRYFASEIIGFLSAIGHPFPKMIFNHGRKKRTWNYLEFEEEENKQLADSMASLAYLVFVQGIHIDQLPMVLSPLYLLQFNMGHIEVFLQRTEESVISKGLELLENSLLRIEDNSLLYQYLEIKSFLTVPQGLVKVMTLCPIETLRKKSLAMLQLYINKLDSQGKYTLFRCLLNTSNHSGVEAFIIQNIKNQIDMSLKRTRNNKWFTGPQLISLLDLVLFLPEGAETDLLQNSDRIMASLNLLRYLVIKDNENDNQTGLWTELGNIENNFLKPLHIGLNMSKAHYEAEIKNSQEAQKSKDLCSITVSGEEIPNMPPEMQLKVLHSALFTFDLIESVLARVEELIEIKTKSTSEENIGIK

B1: Rbx1^RING, GST removed (domain or fragment)
chain: not shown
With B1, the binding result is on record as “binds”.

The values above are taken from PMC3336104 (Molecular Cell, 2012).
